Data reported in article PMC9973331, “DNA Methylation and RNA-DNA Hybrids Regulate the Single-Molecule Localization of a DNA Methyltransferase on the Bacterial Nucleoid”.

T1: DnmA (WT) (Bacillus subtilis, UniProt O31504 1-879)
T1 sequence: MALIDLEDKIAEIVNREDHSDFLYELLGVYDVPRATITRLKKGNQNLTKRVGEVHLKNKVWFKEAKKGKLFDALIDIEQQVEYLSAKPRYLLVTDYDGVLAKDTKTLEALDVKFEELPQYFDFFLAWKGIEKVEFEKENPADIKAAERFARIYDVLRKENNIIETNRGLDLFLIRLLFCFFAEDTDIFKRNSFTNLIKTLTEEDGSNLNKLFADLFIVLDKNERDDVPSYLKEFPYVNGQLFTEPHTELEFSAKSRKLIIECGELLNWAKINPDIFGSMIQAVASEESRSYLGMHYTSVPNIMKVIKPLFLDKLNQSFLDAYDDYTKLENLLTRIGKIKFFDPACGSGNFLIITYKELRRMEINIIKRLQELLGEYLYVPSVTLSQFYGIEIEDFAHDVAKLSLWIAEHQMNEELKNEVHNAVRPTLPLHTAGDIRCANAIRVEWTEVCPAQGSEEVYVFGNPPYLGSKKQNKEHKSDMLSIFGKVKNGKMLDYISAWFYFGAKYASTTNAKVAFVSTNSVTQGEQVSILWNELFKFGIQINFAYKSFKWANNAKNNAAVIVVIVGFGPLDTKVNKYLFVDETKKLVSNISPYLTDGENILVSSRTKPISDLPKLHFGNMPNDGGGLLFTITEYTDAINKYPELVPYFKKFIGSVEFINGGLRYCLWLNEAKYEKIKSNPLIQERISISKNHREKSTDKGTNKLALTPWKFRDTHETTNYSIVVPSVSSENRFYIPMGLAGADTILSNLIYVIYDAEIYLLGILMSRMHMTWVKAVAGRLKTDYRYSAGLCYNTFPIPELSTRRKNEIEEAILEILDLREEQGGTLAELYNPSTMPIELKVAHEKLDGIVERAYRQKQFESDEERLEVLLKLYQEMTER


Molecular target: T1, DnmA (WT)
Assay: EMSA; EMSA: 5x buffer 500 mM Tris-HCl pH 8, 1.25 M NaCl, 10% glycerol (1x: 100 mM Tris, 250 mM NaCl, 2% glycerol), 5 nM probe, 30 min at 25 C; 6% native PAGE in 1x TBE on ice
Conditions: protein: recombinant; tags: His-SUMO tag (pE-SUMO) removed by SUMO protease; label: 5' IRDye700 on strand 1; 5' IRDye800 on strand 2; blunt

Row | Binder | apparent K (half saturation) [nM]
1 | unmethylated dsDNA (oTMN67/oTMN68) (dsDNA) DNA 1: CAAAACAGGATATGAAATAGTATTGGACGAGAGCTTTTTGGTGGCTTATACTATAG DNA 2: CTATAGTATAAGCCACCAAAAAGCTCTCGTCCAATACTATTTCATATCCTGTTTTG | 36.8 ± 14.2
2 | methylated dsDNA (oNLF001/oTMN68) (dsDNA, m6A in strand 1 (oNLF001), exact position not visible in printed string; presumably in GACGAG) DNA 1: CAAAACAGGATATGAAATAGTATTGGACGAGAGCTTTTTGGTGGCTTATACTATAG DNA 2: CTATAGTATAAGCCACCAAAAAGCTCTCGTCCAATACTATTTCATATCCTGTTTTG | 156 ± 76
3 | RNA-DNA hybrid (oTMN67/oJRR271) (DNA:RNA, strand 2 is RNA) DNA: CAAAACAGGATATGAAATAGTATTGGACGAGAGCTTTTTGGTGGCTTATACTATAG RNA: CUAUAGUAUAAGCCACCAAAAAGCUCUCGUCCAAUACUAUUUCAUAUCCUGUUUUG | 321 ± 16.5
